Test results: patent US20190127434

B1: Recombinant Human USP2 Catalytic Domain (protein)
chain: NSKSAQGLAGLRNLGNTCFMNSILQCLSNTRELRDYCLQRLYMRDLHHGSNAHTALVEEFAKLIQTIWTSSPNDVVSPSEFKTQIQRYAPRFVGYNQQDAQEFLRFLLDGLHNEVNRVTLRPKSNPENLDHLPDDEKGRQMWRKYLEREDSRIGDLFVGQLKSSLTCTDCGYCSTVFDPFWDLSLPIAKRGYPEVTLMDCMRLFTKEDVLDGDEKPTCCRCRGRKRCIKKFSIQRFPKILVLHLKRFSESRIRTSKLTTFVNFPLRDLDLREFASENTNHAVYNLYAVSNHSGTTMGGHYTAYCRSPGTGEWHTFNDSSVTPMSSSQVRTSDAYLLFYELASPPSRM
B2: UCH-L3, human recombinant (protein)
chain: MEGQRWLPLEANPEVTNQFLKQLGLHPNWQFVDVYGMDPELLSMVPRPVCAVLLLFPITEKYEVFRTEEEEKIKSQGQDVTSSVYFMKQTISNACGTIGLIHAIANNKDKMHFESGSTLKKFLEESVSMSPEERARYLENYDAIRVTHETSAHEGQTEAPSIDEKVDLHFIALVHVDGHLYELDGRKPFPINHGETSDETLLEDAIEVCKKFMERDPDELRFNAIALSAA
B3: Recombinant Human UCH-L5/UCH37 (protein)
chain: MTGNAGEWCLMESDPGVFTELIKGFGCRGAQVEEIWSLEPENFEKLKPVHGLIFLFKWQPGEEPAGSVVQDSRLDTIFFAKQVINNACATQAIVSVLLNCTHQDVHLGETLSEFKEFSQSFDAAMKGLALSNSDVIRQVHNSFARQQMFEFDTKTSAKEEDAFHFVSYVPVNGRLYELDGLREGPIDLGACNQDDWISAVRPVIEKRIQKYSEGEIRFNLMAIVSDRKMIYEQKIAELQRQLAEEEPMDTDQGNSMLSAIQSEVAKNQMLIEEEVQKLKRYKIENIRRKHNYLPFIMELLKTLAEHQQLIPLVEKAKEKQNAKKAQETK

molecular target: K6UbKMRC011

Protein	cleavage by ubiquitin cleavage enzymes, SDS-PAGE analysis (10 mg/L enzyme, 37 C, 12 hours)
B1	the refolded K6UbKMRC011 was cleaved by the ubiquitin cleavage enzymes shown in Table 2 and correctly separated into K6Ub and KMRC011
B2	the refolded K6UbKMRC011 was cleaved by the ubiquitin cleavage enzymes shown in Table 2 and correctly separated into K6Ub and KMRC011
B3	the refolded K6UbKMRC011 was cleaved by the ubiquitin cleavage enzymes shown in Table 2 and correctly separated into K6Ub and KMRC011
